Data: patent publication WO2009041734A1

Target: human thrombopoietin receptor (human c-Mpl) (human) (UniProt P40238)
Assay: cell-based or functional assay

UT7/TPO (Max): 100%
Substance: PEG-rHuMGDF (Pegylated Recombinant Human Megakaryocyte Growth and Development Factor) (ligand)
